This assay addresses IL-12 receptor.

18/12/TxM triple-cytokine fusion protein, sequence (Q13261 whole entry, looked up, the tested form may be a part): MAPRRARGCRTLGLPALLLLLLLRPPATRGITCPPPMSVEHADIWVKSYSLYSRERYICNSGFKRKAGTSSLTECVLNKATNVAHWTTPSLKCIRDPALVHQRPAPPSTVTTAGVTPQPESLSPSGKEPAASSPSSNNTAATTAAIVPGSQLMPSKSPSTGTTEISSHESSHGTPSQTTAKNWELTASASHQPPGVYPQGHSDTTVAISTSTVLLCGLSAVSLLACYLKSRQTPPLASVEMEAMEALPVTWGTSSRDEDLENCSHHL
18/12/TxM triple-cytokine fusion protein, sequence (P29459 whole entry, looked up, the tested form may be a part): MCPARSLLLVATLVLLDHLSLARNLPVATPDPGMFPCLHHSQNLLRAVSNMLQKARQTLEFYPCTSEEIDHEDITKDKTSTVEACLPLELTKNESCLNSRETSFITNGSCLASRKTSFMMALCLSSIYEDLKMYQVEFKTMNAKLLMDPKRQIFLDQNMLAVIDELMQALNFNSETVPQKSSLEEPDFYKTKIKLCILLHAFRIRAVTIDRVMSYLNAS
18/12/TxM triple-cytokine fusion protein, sequence (P29460 whole entry, looked up, the tested form may be a part): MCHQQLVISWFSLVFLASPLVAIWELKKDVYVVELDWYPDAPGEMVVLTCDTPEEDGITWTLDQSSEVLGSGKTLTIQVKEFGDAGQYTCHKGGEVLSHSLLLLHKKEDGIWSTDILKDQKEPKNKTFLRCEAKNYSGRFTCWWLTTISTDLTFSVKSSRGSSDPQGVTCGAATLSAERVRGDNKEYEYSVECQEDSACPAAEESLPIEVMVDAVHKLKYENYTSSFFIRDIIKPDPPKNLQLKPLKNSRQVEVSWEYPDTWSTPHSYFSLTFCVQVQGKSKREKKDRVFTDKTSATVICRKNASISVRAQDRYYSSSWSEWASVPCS
18/12/TxM triple-cytokine fusion protein, sequence (Q14116 whole entry, looked up, the tested form may be a part): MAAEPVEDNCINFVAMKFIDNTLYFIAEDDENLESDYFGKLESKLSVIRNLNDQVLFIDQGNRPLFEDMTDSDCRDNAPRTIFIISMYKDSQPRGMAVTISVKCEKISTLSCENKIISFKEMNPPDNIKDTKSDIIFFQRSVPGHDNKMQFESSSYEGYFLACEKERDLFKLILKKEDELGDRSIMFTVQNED

Take “18/12/TxM triple-cytokine fusion protein (from UniProt Q14116 37-193; P29460 23-328; P29459 23-219; Q13261 31-95) (complex)”: the activation of IL-12 reporter HEK-Blue (HEK12) cells (STAT4-inducible SEAP), EC50 amounted to 99.1 pM.

Source of the values: article PMC8889352.
